Square brackets hold non-standard residues; d marks the D form. Ends that are not written are not given here. Peptide text beside a SMILES is read from it. Bounds are passed on as bounds.

The term Kd denotes the equilibrium constant for the complex coming apart. Low values mean a tighter complex, high ones a looser complex.

Assay [1] addresses full-length recombinant GRP78 (Homo sapiens, UniProt P11021). Kind of assay: Biacore binding assay of peptides. Conditions: for binding responses in Biacore / Binding to GRP78 compared to the L-peptide: in words; for Binding index: peptide at 50 μM, difference of RUs divided by molecular weight, normalized to the L-peptide; for Binding to GRP78 compared to the L-peptide: Biacore. On the procedure: 26 candidate peptides designed by the method described in Example 1 (listed in Table 6 below) above and peptide CdL, a negative control, were synthesized by conventional chemical synthesis and subjected to the surface-plasmon-resonance based method described below to examine the binding activities of the peptides to human GRP78.
The chip NTA and HBS-P buffer were obtained from GE Healthcare. Sensor chip NTA was prepared by combining Ni-ion chelation and covalent immobilization of N-His tagged GRP78 via amine-coupling with nitrilotriacetic acid on chip NTA (FIG. 6). To immobilize GRP78 protein on sensor chip for peptide-binding assay using Biacore, the methods based on Ni-ion chelation and amine coupling reaction were combined. Sensor chip NTA was prepared by chelation followed by covalent immobilization of N-His-tagged GRP78 via amine-coupling at the nitrilotriacetic acid group on chip NTA. The sensor chip NTA, HBS-P buffer and amine coupling kits were all obtained from GE Healthcare. First, the activation of chip surface using EDC and NHS reagents for amine coupling were according to the standard procedure from manufacturer's instruction. Additionally, one-minute pulse of NiCl2 solution (500 μM) was used to attract His-tagged GRP78 to the surface of sensor chip and formed covalent bond subsequently in the condition of HBS-P buffer (pH 7.4). The resulting differences of RU were about 5,000-6,000 RU. After de-activation by ethanolamine and washed with EDTA (3 mM), the prepared sensor chip was then applied to Biacore X for binding assay. The HBS-P buffer containing 1 mM Gly was used as running buffer for binding assay. Solution of 20 mM sodium hydroxide dissolved in running buffer was used to regenerate the chip surface by one-minute pulse.
The sensor chip thus prepared was applied to Biacore X for determining the binding between the peptides and GRP78. The HBS-P buffer containing 1 mM Gly was used as a running buffer. A solution of 20 mM sodium hydroxide dissolved in the running buffer was used to regenerate chip surface by 1-minute pulses.
The binding of various peptides to GRP78 is also shown as a binding index in Table 6. The binding index represents the difference of resonance units (RUs) divided by the molecular weight of each peptide and was normalized by comparison to the L-peptide.
Background: SPR reads the build-up and loss of mass on a sensor chip optically.

For assay [2], the system named is TW01 cells. Kind of assay: Flow cytometry binding of FITC-labeled peptide, TW01. The assay is classed as cell-based. The settings on record: Nasopharyngeal. As to the method:
(§1) Cells were grown to 80% confluence and harvested with 5 mmol/L EDTA in PBS. Breast cancer specimens were obtained from patients who underwent initial surgery at Tri-Service General Hospital (Taipei, Taiwan). The clinical breast cancer specimens were sliced to fragments of 1 mm2 in size and subjected to enzymatic digestion by collagenase (1,000 U/mL), hyaluronidase (300 U/mL), and DNase I (100 μg/mL) at 37° C. for 2 hours. Primary breast tumor cells were collected after filtration through a 100 μm cell strainer (BD Biosciences) and re-suspended. For transplantation, tumor cells mixed with normal human breast fibroblasts and Matrigel were subcutaneously injected into mammary fat pads of female NOD/SCID mice received a sub-lethal dose of gamma irradiation in advance. After transplantation, cells of xenografted tumors were isolated and inoculated in NOD/SCID mice for serial passages. The cancer cell lines, xenograft cells, and primary breast tumor cells were re-suspended in a FACS buffer (PBS with 2% fetal bovine serum) and incubated at room temperature for 30 min with FITC-conjugated various peptides. To determine breast cancer stem cell (BCSCs) and non-breast cancer stem cell (non-BCSC) populations from xenografts, the cells were stained with a mixture of anti-H2Kd-biotin followed by streptavidin-PER-CP, anti-CD24-PE, anti-CD44-APC and FITC-conjugated various peptides. The primary breast tumor cells were stained with anti-CD45-PerCP-Cy5.5 antibodies, instead of H2Kd staining. The stained cells were then subjected to FACS analysis.
A general note: A flow cytometer gives signals particle by particle.

Assay [3] concerns MDA-MB-231 cells. Nature of the assay: Flow cytometry binding of FITC-labeled peptide, MDA-MB-231. The assay is classed as cell-based. Conditions: Breast. On the procedure: as §1
The test system of assay [4] is human primary breast cancer BC0145 and BC0244 engrafted in NOD/SCID mice. Nature of the assay: Flow cytometry binding of FITC-labeled peptides to xenograft cells (BCSC-enriched and non-BCSC). The assay is classed as cell-based. Conditions: for Binding capacities in vitro compared with L-peptide: both BCSCs and non-BCSCs. As to the method: To evaluate the in vitro binding abilities of cancer-targeting peptides described herein, the FITC-labeled L-peptide, P-6, P-12, P-13, and P-16 were tested for their binding activities to cancer cells, primary breast cancer engrafted in NOD/SCID mice, and clinical breast cancer specimens by a flow cytometric analysis as described below.
as §1
The binding capacities of the L-peptide and the P-6, P-12, P-13, and P-16 peptides to two xenograft samples from NOD-SCID mice transplanted with human primary breast cancer cell lines BC0145 and BC0244 were evaluated with special focus on their binding to the BCSC subpopulation enriched from the breast cancer cells. Breast cancer cells harvested from engrafted tumors were stained with H2Kd to gate out mouse cells, and stained with anti-CD24 and anti-CD44 antibodies to distinguish BCSC-enriched cells (CD24^−CD44^+) from non-BCSC cells. These cells were co-stained with one of the above-noted peptides, which was FITC-labeled and subjected to flow cytometric analysis. […] The binding abilities of these peptides to clinical breast specimens were similar to those to xenograft samples. […] FIG. 7, panel d.

For assay [5], the target named is GRP78 (Homo sapiens, UniProt P11021). Kind of assay: Dissociation constant of L-peptide binding to GRP78. Conditions: dose-dependent binding to GRP78.
Chain of GRP78 (P11021 19-654): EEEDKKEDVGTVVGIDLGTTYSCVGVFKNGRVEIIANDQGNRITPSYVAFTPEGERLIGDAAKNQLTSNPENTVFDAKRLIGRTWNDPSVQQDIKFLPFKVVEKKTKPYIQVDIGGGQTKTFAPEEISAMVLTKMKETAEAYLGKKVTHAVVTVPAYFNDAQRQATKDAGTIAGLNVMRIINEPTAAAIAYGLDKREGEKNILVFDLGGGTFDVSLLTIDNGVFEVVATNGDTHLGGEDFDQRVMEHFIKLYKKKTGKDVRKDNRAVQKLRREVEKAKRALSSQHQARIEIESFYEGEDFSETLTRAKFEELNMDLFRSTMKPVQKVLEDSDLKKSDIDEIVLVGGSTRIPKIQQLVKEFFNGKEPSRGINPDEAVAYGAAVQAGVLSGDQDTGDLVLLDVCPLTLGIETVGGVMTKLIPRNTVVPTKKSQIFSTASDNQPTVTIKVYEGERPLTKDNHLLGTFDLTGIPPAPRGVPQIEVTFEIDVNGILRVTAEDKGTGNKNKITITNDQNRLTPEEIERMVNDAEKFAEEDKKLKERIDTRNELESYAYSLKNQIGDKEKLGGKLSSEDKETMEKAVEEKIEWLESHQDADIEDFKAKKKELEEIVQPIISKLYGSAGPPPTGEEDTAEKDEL

Chain of full-length recombinant GRP78 (P11021 19-654): as above

As for RLLDTNRPYLWY [PB-2], in assay [1], the “binding responses in Biacore” value is recorded as “significant binding responses” and the Binding index worked out at 3.

Turning to RLLDTNRPHLWY [P-12], in assay [1], the “Binding to GRP78 compared to the L-peptide” value is recorded as “bound to GRP78 better than the L-peptide”, the “binding responses in Biacore” value was “significant binding responses” and the Binding index is given as 1.2~3.5. For the same compound, the Binding ability entry in assay [2] is recorded as “bound”. Further, the Binding ability entry in assay [3] was “bound”. The “Binding capacities in vitro compared with L-peptide” value in assay [4] (FITC-labeled peptides) is on record as “greater binding capacities in vitro than L-peptide”.

On to RLLDTNRPRLEY [P-17], for which the Binding index in assay [1] is on record as less than 0.2.

For RLLDTNRPKLFY [P-4], in assay [1], the Binding index is recorded as less than 0.2.

As to RLLDTNRPELPY [PA-2], the Binding index in assay [1] is listed as less than 0.2.

For the compound RLLDTNRPHLKY [P-15], in assay [1], the Binding index was less than 0.2.

Turning to RLLDTNRPNLPY [PA-4], the Binding index in assay [1] turned out to be 0.31.

With RLLDTNRPYLKY [P-1], in assay [1], the Binding index is less than 0.2.

In the case of “RLLDTNRPL(d-L)PY (RLLDTNRPL[dL]PY) [CdL, negative control peptide, reference compound]”, the Binding index in assay [1] is given as less than 0.2.

Turning to RLLDTNRPFLKY [P-10], the Binding index in assay [1] was less than 0.2.

In the case of RLLDTNRPMLKY [P-8], the Binding index in assay [1] was less than 0.2.

With RLLDTNRPWLPY [PA-1], in assay [1], the “Binding to GRP78 compared to the L-peptide” value is given as “significantly decreased the binding” and the Binding index is on record as 0.35.

Turning to RLLDTNRPFLWY [PB-1], in assay [1], the “binding responses in Biacore” value is recorded as “significant binding responses” and the Binding index is recorded as 1.6.

For RLLDTNRPFLPY [P-6], in assay [1], the “Binding to GRP78 compared to the L-peptide” value was “bound to GRP78 better than the L-peptide”, the “binding responses in Biacore” value is recorded as “significant binding responses” and the Binding index is 1.1~1.52. In addition, the Binding ability result in assay [2] was “bound”. For the same compound, the Binding ability entry in assay [3] is reported as “bound”. For the same compound, the “binding capacity to BCSC-enriched cells” value in assay [4] (FITC-labeled peptide, BCSC-enriched cells isolated from the BC0145 xenograft) is recorded as “equivalent to P-12”. Further, in assay [4] (FITC-labeled peptides), the “Binding capacities in vitro compared with L-peptide” value is “greater binding capacities in vitro than L-peptide”.

As for RLLDTNRPSLFY [P-7], the Binding index in assay [1] is on record as less than 0.2.

Consider “RLLDTNRPLLPY(CONH2) (RLLDTNRPLLPY-NH2) [PB-3, L-peptide modified with the amidation (CONH2)]”, for which, in assay [1], the “Binding to GRP78 compared to the L-peptide” value is listed as “did not significantly affect the binding affinity”, the “binding responses in Biacore” value is given as “significant binding responses” and the Binding index was found to be 1.15.

With RLLDTNRPKLVY [P-2], the Binding index in assay [1] is recorded as less than 0.2.

Turning to RLLDTNRPHLPY [PA-6], the Binding index in assay [1] came out at 0.47.

With RLLDTNRPMLMY [P-5], the Binding index in assay [1] was less than 0.2.

As for RLLDTNRPKLRY [P-16], in assay [1], the Binding index is on record as less than 0.2.

With RLLDTNRPLLGY [P-11], the Binding index in assay [1] worked out at 0.77.

Consider RLLDTNRPLLLY [P-14], for which the Binding index in assay [1] amounted to 0.21.

As to RLLDTNRPDLPY [PA-3], in assay [1], the Binding index was less than 0.2.

Regarding RLLDTNRPQLVY [P-3], in assay [1], the Binding index is listed as less than 0.2.

In the case of RLLDTNRPPLCY [P-9], the Binding index in assay [1] is less than 0.2.

As for RLLDTNRPFLFY [P-13], in assay [1], the “Binding to GRP78 compared to the L-peptide” value is listed as “bound to GRP78 better than the L-peptide”, the “binding responses in Biacore” value is “significant binding responses” and the Binding index is reported as 1.4~3.5. The Binding ability result in assay [2] was “bound”. The Binding ability entry in assay [3] is recorded as “bound”. In assay [4] (FITC-labeled peptides, BCSC-enriched and non-BCSC cells of BC0145 and BC0244 xenografts), the “Staining strength (order of binding)” value was “stained most strongly”. Moreover, the “Binding capacities in vitro compared with L-peptide” value in assay [4] (FITC-labeled peptides) was “greater binding capacities in vitro than L-peptide”.

For the compound `CC(C)C[C@H](NC(=O)[C@H](CC(C)C)NC(=O)[C@@H](N)CCCNC(=N)N)C(=O)N[C@@H](CC(=O)O)C(=O)N[C@H](C(=O)N[C@@H](CC(N)=O)C(=O)N[C@@H](CCCNC(=N)N)C(=O)N1CCC[C@H]1C(=O)N[C@@H](CC(C)C)C(=O)N[C@@H](CC(C)C)C(=O)N1CCC[C@H]1C(=O)N[C@@H](Cc1ccc(O)cc1)C(=O)O)[C@@H](C)O` [L-peptide] (H-RLLDTNRPLLPY-OH), the Kd in assay [5] lay in the range of 1 to 10 µM.

Regarding RLLDTNRPQLPY [PA-5], in assay [1], the Binding index was 0.3.
